Consider 1 sequence from US20100021899.

This data set deals with alpha-PrP (prion protein, alpha form) (UniProt P04156). Briefly: SPR. The following applies: PBS pH 7.0, room temperature.

A word on the Kd: it is the concentration at which binding is half-saturated. Higher therefore signals weaker binding. Turning to “GTTCGGCACTTGGGCCCTTTTCTGTGTCTTTCTGTGCCCTTAGATAGTATGTGCAATCA [CaAp-3]”, the Kd was found to be 116 nM.
